The supplement of paper PMC9732359
± gives the uncertainty stated by the source.

Test: protein stability index of a GFP-peptide fusion (yeast GPS) (PSI 1-4); higher = more stable; sorted into four equal gates, so the index is relative within each strain
Summary of the method: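 The protein stability index combines read frequencies across sorting gates, each weighted by its gate number and then summed. To obtain those frequencies, a pooled yeast library of GFP fusions to tiled 17-residue yeast protein peptides, on a plasmid also expressing Cherry, was grown to mid-log phase in leucine-free medium. The cells were sorted into four equal gates by GFP/Cherry ratio before plasmid amplification by PCR and Illumina sequencing.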

PTLFDLAFNYITYDKQE [SRP68]
protein stability index (doa10∆): 2.39 ± 0.064
protein stability index (pdr5∆): 1.72 ± 0.064
protein stability index (san1∆): 1.77 ± 0.081
protein stability index (ubr1∆): 1.54 ± 0.059

PTLVRSVISGNLSLYEA [CSN12]
protein stability index (doa10∆): 2.92 ± 0.085
protein stability index (pdr5∆): 3.05 ± 0.092
protein stability index (san1∆): 3.06 ± 0.068
protein stability index (ubr1∆): 2.91 ± 0.054

PTPSVKTEPVGTGLQSY [RPC53]
protein stability index (doa10∆): 3.4 ± 0.25
protein stability index (pdr5∆): 3.23 ± 0.13
protein stability index (san1∆): 3.16 ± 0.1
protein stability index (ubr1∆): 3.25 ± 0.11

PTVDEQRQYKVQLLLHI [SNF11]
protein stability index (doa10∆): 1.8 ± 0.12
protein stability index (pdr5∆): 1.95 ± 0.082
protein stability index (san1∆): 1.82 ± 0.12
protein stability index (ubr1∆): 1.89 ± 0.065

PVDITMMENYQNISPVY [PRP8]
protein stability index (doa10∆): 2.28 ± 0.049
protein stability index (pdr5∆): 1.99 ± 0.06
protein stability index (san1∆): 2.2 ± 0.071
protein stability index (ubr1∆): 2.06 ± 0.038

PVEKVKEHDEIEEQGDA [DPB4]
protein stability index (doa10∆): 3.19 ± 0.095
protein stability index (pdr5∆): 3.34 ± 0.12
protein stability index (ubr1∆): 3.5 ± 0.11

PVIDTQIANEFNTQQGI [YDL116W/NUP84]
protein stability index (doa10∆): 2.77 ± 0.051
protein stability index (pdr5∆): 2.99 ± 0.057
protein stability index (san1∆): 2.79 ± 0.042
protein stability index (ubr1∆): 2.95 ± 0.047

PVKSIRARLKGKEGRIR [RPO21]
protein stability index (doa10∆): 3.36 ± 0.091
protein stability index (pdr5∆): 3.22 ± 0.11
protein stability index (san1∆): 3.33 ± 0.085
protein stability index (ubr1∆): 2.94 ± 0.079

PYCPIASITGTGSNDRC [YMR129W/POM152]
protein stability index (doa10∆): 1.96 ± 0.099
protein stability index (pdr5∆): 1.82 ± 0.1
protein stability index (san1∆): 1.56 ± 0.18
protein stability index (ubr1∆): 1.64 ± 0.055

PYFEQKIQETELKIRSK [RPT6]
protein stability index (doa10∆): 2.71 ± 0.12
protein stability index (pdr5∆): 2.84 ± 0.1
protein stability index (san1∆): 2.96 ± 0.13
protein stability index (ubr1∆): 3.04 ± 0.088

PYGSFHQQQLQQPHYIQ [DSN1]
protein stability index (doa10∆): 2.76 ± 0.063
protein stability index (pdr5∆): 2.98 ± 0.052
protein stability index (san1∆): 2.92 ± 0.044
protein stability index (ubr1∆): 3.1 ± 0.048

PYKYRLREEIFIANEGV [RPL2A]
protein stability index (doa10∆): 2.88 ± 0.096
protein stability index (pdr5∆): 2.94 ± 0.085
protein stability index (san1∆): 2.29 ± 0.067
protein stability index (ubr1∆): 2.86 ± 0.054

PYMNHKNTSSMDFLNSM [GAL11]
protein stability index (doa10∆): 1.87 ± 0.056
protein stability index (pdr5∆): 1.69 ± 0.055
protein stability index (san1∆): 2.48 ± 0.089
protein stability index (ubr1∆): 3.04 ± 0.044

QAGVTKASVTIVFDNTD [SMC2]
protein stability index (doa10∆): 2.23 ± 0.071
protein stability index (pdr5∆): 2.76 ± 0.058
protein stability index (san1∆): 2.73 ± 0.053
protein stability index (ubr1∆): 3.09 ± 0.047

QAPTELELQVAQAFVEL [RPS7A]
protein stability index (doa10∆): 2.53 ± 0.055
protein stability index (pdr5∆): 2.82 ± 0.063
protein stability index (san1∆): 2.59 ± 0.047
protein stability index (ubr1∆): 2.45 ± 0.046

QCIVYPNCLFILKLLNG [SOH1]
protein stability index (doa10∆): 1.3 ± 0.062
protein stability index (pdr5∆): 1.51 ± 0.061
protein stability index (san1∆): 1.27 ± 0.14
protein stability index (ubr1∆): 1.29 ± 0.047

QDDDDYVDTATAKRKSR [IRR1]
protein stability index (doa10∆): 2.83 ± 0.061
protein stability index (pdr5∆): 2.94 ± 0.054
protein stability index (san1∆): 2.15 ± 0.083
protein stability index (ubr1∆): 2.93 ± 0.039

QDDEYVKDWLYDSRPLE [PRP8]
protein stability index (doa10∆): 3.25 ± 0.16
protein stability index (pdr5∆): 3.43 ± 0.11
protein stability index (san1∆): 3.18 ± 0.13
protein stability index (ubr1∆): 3.02 ± 0.068

QDEEQTEHLTELSDNEE [YCG1]
protein stability index (doa10∆): 3.29 ± 0.09
protein stability index (pdr5∆): 3.37 ± 0.075
protein stability index (san1∆): 3.33 ± 0.054
protein stability index (ubr1∆): 3.02 ± 0.062

QDNHHITKVTENLFSKE [YMR129W/POM152]
protein stability index (doa10∆): 2.86 ± 0.059
protein stability index (pdr5∆): 2.8 ± 0.066
protein stability index (san1∆): 2.99 ± 0.045
protein stability index (ubr1∆): 3.1 ± 0.049

QDPKTLVALLSRDLWCF [SSN2]
protein stability index (doa10∆): 1.39 ± 0.057
protein stability index (pdr5∆): 1.34 ± 0.043
protein stability index (san1∆): 1.31 ± 0.15
protein stability index (ubr1∆): 1.54 ± 0.073

QDQYKEGIKVVDIDDPD [SNF2]
protein stability index (doa10∆): 2.97 ± 0.16
protein stability index (pdr5∆): 2.45 ± 0.086
protein stability index (san1∆): 2.13 ± 0.071
protein stability index (ubr1∆): 2.54 ± 0.073

QDRLSDLIHKSEAFPSL [SMC4]
protein stability index (doa10∆): 3.31 ± 0.15
protein stability index (pdr5∆): 2.7 ± 0.11
protein stability index (san1∆): 3.07 ± 0.077
protein stability index (ubr1∆): 3.03 ± 0.088

QDYYIIGANIYQSPTIF [MED6]
protein stability index (doa10∆): 2.33 ± 0.056
protein stability index (pdr5∆): 2.42 ± 0.055
protein stability index (san1∆): 2.15 ± 0.07
protein stability index (ubr1∆): 2.46 ± 0.029

QEFFFHAMGGREGLIDT [RPO21]
protein stability index (doa10∆): 2.54 ± 0.081
protein stability index (pdr5∆): 2.17 ± 0.08
protein stability index (san1∆): 2.39 ± 0.087
protein stability index (ubr1∆): 2.08 ± 0.063

QEHTIFTQLKKNIPKTR [SNU114]
protein stability index (doa10∆): 1.8 ± 0.045
protein stability index (pdr5∆): 2.16 ± 0.05
protein stability index (san1∆): 2.64 ± 0.049
protein stability index (ubr1∆): 1.62 ± 0.037

QEKESQIQLAESELSLL [SMC4]
protein stability index (doa10∆): 2.81 ± 0.046
protein stability index (pdr5∆): 2.95 ± 0.051
protein stability index (san1∆): 1.89 ± 0.076
protein stability index (ubr1∆): 2.71 ± 0.039

QENGTIFRGSLIGCIPY [YDL088C/ASM4]
protein stability index (doa10∆): 2.59 ± 0.052
protein stability index (pdr5∆): 2.57 ± 0.052
protein stability index (san1∆): 2.48 ± 0.061
protein stability index (ubr1∆): 2.5 ± 0.038

QEQVQDYVNKTNSHLPA [FAS1]
protein stability index (doa10∆): 2.52 ± 0.069
protein stability index (pdr5∆): 2.44 ± 0.1
protein stability index (san1∆): 2.62 ± 0.11
protein stability index (ubr1∆): 2.32 ± 0.064

QESFNSVQNLDQLLTDL [NUT1]
protein stability index (doa10∆): 3.22 ± 0.092
protein stability index (pdr5∆): 3.2 ± 0.095
protein stability index (san1∆): 3.04 ± 0.049
protein stability index (ubr1∆): 3.17 ± 0.068

QFEKSRKVSGPRALQPS [RET1]
protein stability index (doa10∆): 2.98 ± 0.085
protein stability index (pdr5∆): 3.19 ± 0.11
protein stability index (san1∆): 2.94 ± 0.061
protein stability index (ubr1∆): 3.06 ± 0.066

QFNKILPEPTEGFAADD [FAS1]
protein stability index (doa10∆): 2.79 ± 0.067
protein stability index (pdr5∆): 3.07 ± 0.08
protein stability index (san1∆): 2.91 ± 0.081
protein stability index (ubr1∆): 2.77 ± 0.11

QFQRLAPSLTVPPIASP [PRE2]
protein stability index (doa10∆): 2.14 ± 0.053
protein stability index (pdr5∆): 2.03 ± 0.049
protein stability index (san1∆): 1.85 ± 0.055
protein stability index (ubr1∆): 2.15 ± 0.038

QGDGLLTKLQKYGAAVR [RPN7]
protein stability index (doa10∆): 2.93 ± 0.17
protein stability index (pdr5∆): 2.89 ± 0.14
protein stability index (san1∆): 3.17 ± 0.12
protein stability index (ubr1∆): 3.28 ± 0.19

QGIVRVYSKQATFLLTD [MCD1]
protein stability index (doa10∆): 1.97 ± 0.038
protein stability index (pdr5∆): 2.29 ± 0.047
protein stability index (san1∆): 2.35 ± 0.049
protein stability index (ubr1∆): 2.03 ± 0.037

QGKHTKFENDELAESTT [LRP1]
protein stability index (doa10∆): 3.75 ± 0.23
protein stability index (pdr5∆): 2.88 ± 0.12
protein stability index (san1∆): 3.12 ± 0.079
protein stability index (ubr1∆): 3.21 ± 0.077

QGNYVTEDIREGDQAEV [YMR129W/POM152]
protein stability index (doa10∆): 3.49 ± 0.086
protein stability index (pdr5∆): 3.32 ± 0.073
protein stability index (san1∆): 3.3 ± 0.066
protein stability index (ubr1∆): 3.39 ± 0.083

QGRFRGNLSGKRVDFSG [RPO31]
protein stability index (doa10∆): 3.36 ± 0.099
protein stability index (pdr5∆): 2.12 ± 0.11
protein stability index (san1∆): 2.76 ± 0.1
protein stability index (ubr1∆): 2.56 ± 0.12

QGRRLGESIMSEEPTDF [MCD1]
protein stability index (doa10∆): 3.21 ± 0.11
protein stability index (pdr5∆): 3.36 ± 0.13
protein stability index (san1∆): 3.32 ± 0.069
protein stability index (ubr1∆): 3.23 ± 0.092

QGRRNSRNFSTRDEETT [SIR4]
protein stability index (doa10∆): 3.04 ± 0.064
protein stability index (pdr5∆): 3.11 ± 0.055
protein stability index (san1∆): 3.12 ± 0.041
protein stability index (ubr1∆): 2.98 ± 0.041

QGVTCLHLAVGKKWFEV [NAS6]
protein stability index (doa10∆): 2.76 ± 0.23
protein stability index (ubr1∆): 3.14 ± 0.14

QHPFPLAHSQHRCAIRS [SSN2]
protein stability index (doa10∆): 1.76 ± 0.05
protein stability index (pdr5∆): 1.42 ± 0.042
protein stability index (san1∆): 1.51 ± 0.091
protein stability index (ubr1∆): 1.27 ± 0.034

QHTSFQEAVNSLKGYKI [CSI1]
protein stability index (doa10∆): 3.15 ± 0.1
protein stability index (pdr5∆): 3.21 ± 0.065
protein stability index (san1∆): 3.35 ± 0.048
protein stability index (ubr1∆): 3.39 ± 0.067

QIAAQSPVELSRMFEEV [SMC1]
protein stability index (doa10∆): 3.19 ± 0.14
protein stability index (pdr5∆): 3.2 ± 0.079
protein stability index (san1∆): 3.14 ± 0.058
protein stability index (ubr1∆): 3.27 ± 0.075
